The target in this test is biotin-conjugated Aβ_(1-40). The experiment in a line: ELISA. In general terms: In an ELISA, binding on a coated surface is turned into a signal by an enzyme label.

B1: solanezumab-Im7 wild-type (solanezumab Fab conjugated to Immunity protein 7) (Fab, V domains shown)
VH: EVQLVESGGGLVQPGGSLRLSCAASGFTFSRYSMSWVRQAPGKGLELVAQINSVGSSTYYPDTVKGRFTISRDNAKNTLYLQMNSLRAEDTAVYYCASGDYWGQGTLVTVSS
VL: DVVMTQSPLSLPVTLGQPASISCRSSQSLIYSDGNAYLHWFLQKPGQSPRLLIYKVSNRFSGVPDRFSGSGSGTDFTLKISRVEAEDVGVYYCSQSTHVPWTFGQGTKVEIK
The term EC50 denotes the concentration that produces a half-maximal response. Turning to B1, the EC50 amounted to 3.5 nM.

The values above are taken from paper doi:10.1101/2025.06.26.661714.
